Experimental data from patent US8247168B2, “Regulation of gene expression by protein methylation” (University of Southern California, priority 1998, dated 2012).

Legend:
hnRNPA1 = test: Methylation of hnRNP A1, SDS-PAGE and fluorography (FIG. 8C); assay type: biochemical, human; conditions: 0.083 mg/ml hnRNP-A1
Protocol: CARM1 and PRMT1 have different protein methyltransferase substrate specificities. CARM1 methylates histone H3, whereas PRMT1 methylates histone H4. […] (A,B) Calf thymus histones (Boehringer Mannheim) were incubated for 30 min at 30° C. in 32.5 μl reactions containing 20 mM Tris-Cl, 0.2 M NaCl, 4 mM EDTA, pH 8.0, 0.32 mg/ml individual histone (2a, 2b, 3, or 4) or 1.3 mg/ml mixed histone (M), 0.037 mg/ml GST-CARM1 or GST-PRMT1, and 7 μM S-adenosyl-L-[methyl-^3H]methionine (specific activity of 14.7 Ci/mmol). Reactions were stopped by addition of SDS-NuPAGE sample buffer (Novex), and 40% of each stopped reaction was then subjected to SDS-PAGE in 4-12% NuPAGE Bis-Tris gradient gels (Novex) using the Na-MES running buffer. Gels were stained with Coomassie Blue R-250 (A), and then subjected to fluorography (Chamberlin, M. (1978) Anal. Biochem. 98:132) for 12 h at −70° C. on sensitized Kodak XAR-5 film (B). Molecular weight markers (MW) are shown at left. Concentrations of GST fusion proteins were determined in comparison with bovine serum albumin standards (Sigma) by SDS polyacrylamide gel electrophoresis and Coomassie Blue staining; it was assumed that bovine serum albumin stained twice as intensely as most other proteins. Concentrations of histones and hnRNP A1 were determined by the method of Lowry (Lowry, O. H. et al. (1951) J. Biol. Chem. 193:265). […]

histone H3 = biological target: T1, histone H3 (Bos taurus, UniProt P68432); test: Identification of methylated amino acids in histone H3 by thin layer chromatography of the hydrolyzate; assay type: biochemical, calf; conditions: histone H3 methylated by CARM1, thin layer chromatography
T1 construct: A 3.2-kb partial CARM1 cDNA clone with an open reading frame of 606 amino acids (CARM1(3-608)); purchased Boehringer Mannheim; host or cells: histone H3 from calf thymus; GST-CARM1 made in E. coli BL21
Protocol: Histone H3 was incubated for 60 min at 30° C. in a 100 μl methylation reaction as described in FIG. 8, containing 0.024 mg/ml GST-CARM1 and 0.63 mg/ml H3. The reaction was stopped with 25 μl of 3% (v/v) trifluoroacetic acid (TFA), 15% (v/v) acetonitrile, and 100 μl was injected into a 3 cm×4.6 mm RP-300 reversed-phase guard column (Perkin Elmer-Brownlee) equilibrated with 80% solvent A (0.3% TFA in water) and 20% solvent B (0.3% TFA in acetonitrile). Methylated H3 was separated from unreacted S-adenosylmethionine using a gradient of 20-80% solvent B over 5 min at a flow rate of 1.0 ml/min. H3 eluted as a broad complex peak detected by monitoring absorbance at 214 nm. The H3 pool was reduced to dryness in a vacuum centrifuge and then subjected to acid hydrolysis in 6 N HCl at 112° C. for 20 h. […] Radioactivity in the fractions was determined by liquid scintillation counting, and peak identity was determined by comparison to derivatized standards including the three major forms of methylarginine and methyllysine. […] Radioactive spots corresponding to the positions of the three forms of methylarginine (which all separated from each other) were removed by scraping the chromatogram, and quantified by liquid scintillation counting. […]

radiolabel migrating with N^G,N^G-dimethylarginine (histone H3): approximately 70%
radiolabel migrating with N^G-monomethylarginine (histone H3): 30%
B1: CARM1: novel murine protein arginine methyltransferase and transcriptional coactivator, 608 amino acids (protein, listed as Mus musculus)
chain: MAAAAATAVGPGAGSAGVAGPGGAGPCATVSVFPGARLLTIGDANGEIQRHAEQQALRLEVRAGPDAAGIALYSHEDVCVFKCSVSRETECSRVGRQSFIITLGCNSVLIQFATPHDFCSFYNILKTCRGHTLERSVFSERTEESSAVQYFQFYGYLSQQQNMMQDYVRTGTYQRAILQNHTDFKDKIVLDVGCGSGILSFFAAQAGARKIYAVEASTMAQHAEVLVKSNNLTDRIVVIPGKVEEVSLPEQVDIIISEPMGYMLFNERMLESYLHAKKYLKPSGNMFPTIGDVHLAPFTDEQLYMEQFTKANFRYQPSFHGVDLSALRGAAVDEYFRQPVVDTFDIRILMAKSVKYTVNFLEAKEGDLHRIEIPFKFHMLHSGLVHGLAFWFDVAFIGSIMTVWLSTAPTEPLTHWYQVRCLFQSPLFAKAGDTLSGTCLLIANKRQSYDISIVAQVDQTGSKSSNLLDLKNPFFRYTGTTPSPPPGSHYTSPSENMWNTGSTYNLSSGVAVAGMPTAYDLSSVIAGGSSVGHNNLIPLANTGIVNHTHSRMGSIMSTGIVQGSSGAQGGGGSSSAHYAVNNQFTMGGPAISMASPMSIPTNTMHYGS
methylation of hnRNPA1 (hnRNPA1): not methylated
